# Measured values published in patent publication US20200102373A1 (COLORADO STATE UNIVERSITY RESEARCH FOUNDATION, published 2020).
# T1: H2B-mCh-TrunTag
# T1 construct: not shown: Histone H2B, mCherry and the linkers between the parts
# T1 peptide: LPGRWKPKM
# T2: H2B-mCh-OrigTag
# T2 construct: not shown: Histone H2B, mCherry and the linkers between the parts
# T2 peptide: MSLPGRWKPKM
# T3: mitoNEET (Mito) fused to mCherry and a C-terminal smHA tag (Mito-mCh-smHA) (Homo sapiens (Human), UniProt Q9NZ45 1-33)
# T3 construct: also called smHA tagged Mito
# T3 peptide: YPYDVPDYA
# Columns and labels:
# [1] = molecular target: T1, H2B-mCh-TrunTag; assay: live-cell fluorescence imaging of U2OS cells co-expressing the GFP-fused scFv and H2B-mCh-TrunTag; co-localization in the nucleus
# [2] = molecular target: T2, H2B-mCh-OrigTag; assay: live-cell fluorescence imaging of U2OS cells co-expressing the GFP-fused scFv and H2B-mCh-OrigTag; co-localization in the nucleus
# [3] = molecular target: T4, mCherry-H2B without HA tag (mCh-H2B) (UniProt P06899 1-126); assay: nuclear to cytoplasmic fluorescence ratio of FB-GFP in living U2OS cells lacking the HA tag
# [4] = molecular target: T3, mitoNEET (Mito) fused to mCherry and a …; assay: live-cell imaging, U2OS cells; reference Mito-mCh-1×HA
# [5] = molecular target: T3, mitoNEET (Mito) fused to mCherry and a …; assay: live-cell imaging, U2OS cells, FB-GFP fluorescence at mitochondria over background
# [6] = molecular target: T4, mCherry-H2B without HA tag (mCh-H2B); assay: nuclear to cytoplasmic fluorescence ratio of the GFP-fused scFv in living U2OS cells with mCh-H2B lacking the HA tag
binder,measurement,setting,value
"χ15F11^HIV chimeric anti-HIV protease scFv fused to GFP (scFv, also called 15F11-HIV-FB; anti-HIV protease frankenbody) scFv: MAEVKLVESGGGLVKPGGSLKLSCAASGFTFSRFGMHWVRQTPEKRLEWVAYISSGSSTIYYADTVKGRFTISRDNAKNTLYLQMSSLRSEDTAIYYCARSGGIERYDGTYYVMDYWGQGTTLTVSSGGGGSGGGGSGGGGSDIVLTQSPASLTVSLGQRATISCRASESVDYYGKSFMNWYQQKPGQPPKLLIYAASNQGSGIPARFSGSGSGTDFTLNIHPVEEEDAATYYCQQSKEVPWTFGAGTKLEI",binding result,[1],binds
same,binding result,[2],binds
"χ15F11^HA chimeric anti-HA scFv fused to mEGFP (HA frankenbody, FB-GFP), expressed in cells (scFv, not shown: large carriers, also called 15F11-HA-FB; pCMV-15F11-HA-mEGFP) scFv: MAEVKLVESGGGLVKPGGSLKLSCAASGFTFSSYGMSWVRQTPEKRLEWVATISRGGSYTYYPDSVKGRFTISRDNAKNTLYLQMSSLRSEDTAIYYCARRETYDEKGFAYWGQGTTLTVSSGGGGSGGGGSGGGGSDIVLTQSPASLTVSLGQRATISCKSSQSLLNSGNQKNYLTWYQQKPGQPPKLLIYWASTRESGIPARFSGSGSGTDFTLNIHPVEEEDAATYYCQNDNSHPLTFGAGTKLEIGGGGSGGGGSGGGGSGGGGSGGGGS",binding result,[3],no binding
same,Mito/Bg ratio of smHA tagged Mito against 1×HA tagged Mito,[4],4.7 times
same,mitochondria to background fluorescent intensity ratio (Mito/Bg),[5],16.6 ratio
"χ2E2^HA chimeric anti-HA scFv fused to mEGFP (scFv, not shown: large carriers, also called 2E2-HA-FB; pCMV-2E2-HA-mEGFP) scFv: MAEVQLVESGGDLVKPGGSLKLSCAASGFTFSSYGMSWVRQTPDKRLEWVATISRGGSYTYYPDSVKGRFTISRDNAKNTLYLQMSSLKSEDTAMYYCARRETYDEKGFAYWGQGTSVTVSSGGGGSGGGGSGGGGSDIVLTQSPASLAVSLGQRATISCKSSQSLLNSGNQKNYLTWYQQKPGQPPKLLIYWASTRESGIPARFSGSGSGTDFTLNIHPVEEEDAATYYCQNDNSHPLTFGGGTKLEIGGGGSGGGGSGGGGSGGGGSGGGGS",binding result,[6],no binding
